Target: T1, purified BCMA (CD269) extracellular domain (human, UniProt Q02223 4-54)
T1 construct: also called BCMA extracellular domain; extracellular domain of CD269
T1 sequence: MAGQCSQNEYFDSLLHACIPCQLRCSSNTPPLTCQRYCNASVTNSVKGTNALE
Assay: co-crystallisation, crystal structure of the complex

B1: Fab fragment prepared from the mouse or chimeric antibody from which the CAR was derived (chimeric antibody J22.9-xi) (Fab, V domains shown)
VH: QVQLQQSGGGLVQPGGSLKLSCAASGIDFSRYWMSWVRRAPGKGLEWIGEINPDSSTINYAPSLKDKFIISRDNAKNTLYLQMSKVRSEDTALYYCASLYYDYGDAMDYWGQGTSVTVSS
VL: DIVMTQSQRFMTTSVGDRVSVTCKASQSVDSNVAWYQQKPRQSPKALIFSASLRFSGVPARFTGSGSGTDFTLTISNLQSEDLAEYFCQQYNNYPLTFGAGTKLELKR
notes: also called J22.9-xi Fab; Fab fragments prepared from mouse or chimeric antibodies
- binding result: binds

Source: patent publication US20190307797A1 (MAX DELBR CK CENTRUM F R MOLEKULARE MEDIZIN IN DER …, published 2019)
